The text below walks through data of PMC11203719, “Mts1 (S100A4) and Its Peptide Demonstrate Cytotoxic Activity in Complex with Tag7 (PGLYRP1) Peptide” (International Journal of Molecular Sciences, 2024).

Sequences and labels used below:
B1: Mts1 (S100A4) protein, recombinant human (natural protein)
chain: not shown
modifications: Alexa Fluor 633 label (only in the thermophoresis with Tag7, 17.1, 17.1A and 17.1B)
notes: cDNA subcloned into pQE-30; PDB 3NCF is printed for Mts1 but may be a misprint; also called metastasin 1; full-sized Mts1; source: E. coli M15 (pREP4), pQE-30, purified (HisTrap FF)
B2: peptide 17.1A of Tag7 (PGLYRP1) (peptide)
peptide: RSNYVLKG
notes: source: synthetic peptide (Fmoc, HPLC purified)
B3: peptide 17.1B of Tag7 (PGLYRP1) (peptide)
peptide: HRDVQRT
notes: as for B2

Series [1] concerns the molecule itself. In words: SDS-PAGE and Western blot; eluate of recombinant Mts1 from 17.1-Sepharose resolved by 12% SDS-PAGE and blotted with anti-Mts1; oligomer state read from the band. For orientation: Immunoblotting shows a protein as a band on a membrane.
Series [2] has as its target B1. Kind of series: MST; Mts1 labelled with Alexa Fluor 633 (200 nM), preincubated 20 min in the dark at room temperature with 16 concentrations of Tag7 or peptide; Monolith NT.115, 10% IR laser power; apparent Kd. The settings on record: both partners purified.

Broadly, the stoichiometry N is the number of molecules, sites or subunits per partner or assembly. With B1, the “stoichiometry N” value in series [1] was 4.

For B2, the Kd in series [2] came out at 109 nM.

For B3, the Kd in series [2] turned out to be 7.26 nM.
